Data reported in patent publication US20070249534A1, “Novel medicament for treating neurodegenerative diseases” (priority 2001, published 2007).
Like-named read-outs stand apart in the source and are kept apart here. Where a SMILES comes first, the peptide text is derived from it. Where no end group is shown, it is not given here. [ ]: non-standard residue; d: D form. Sec = N[C@@H](C[SeH])C(=O)O

Legend:
[1] = test system: Dami cells; assay: Cytotoxicity-inhibitory (cell death-inhibitory) activity assay using Dami cells; format: cell-based; settings: for cell death-inhibitory activity (in words): selenoprotein P and fragments purified from plasma
Procedure: Using Dami cells (described in Greenberg S. M. et al., Blood, vol. 72, p. 1968-1977 (1988)) for use in assay system for cytotoxicity-inhibitory activity, the cells were washed twice with assay medium (50% PBS/SA/0.03% HSA (manufactured by SIGMA) or SA/0.05% BSA free from fatty acid (WAKO)/4 μM long-chain polyvalent fatty acid (e.g. arachidonic acid, linoleic acid or linolenic acid)) and suspended in the same medium at 3×10^4 cells/ml. The cell suspension was added to a 96-well plate in each 200 μl for wells for sample addition or in each 100 μl for wells for serial dilution. […] After stirring, a serial dilution was made with the wells containing 100 μl cell suspension. The plate was incubated at 37° C. in CO2 incubator for 4 to 5 days followed by assessment of survival of the cells.

[2] = test system: Rolling Mouse Nagoya; settings: intraperitoneal administration; cited from earlier work
[3] = test system: Dami cells
[4] = test system: Dami cells; settings: stated as known; cited from earlier work
[5] = test system: Rolling Mouse Nagoya; assay: Effect of selenoprotein P on ataxia (stumbling index) in Rolling Mouse Nagoya; format: in vivo
Procedure: In order to confirm the activity to ameliorate ataxia of selenoprotein P, Rolling Mouse Nagoya, the established model of ataxia, was used with a stumbling index. Animals were divided into the following groups each consisting of ten animals: a control group intraperitoneally administered with saline (0.25 mL/head/week); a group intraperitoneally administered with a low dose of selenoprotein P (0.05 mg/head/week; 0.25 mL/head/week); and a group intraperitoneally administered with a high dose of selenoprotein P (0.5 mg/head/week; 0.25 mL/head/week). The animals received intraperitoneal administration once a week for three weeks.
The animals were Rolling Mouse Nagoya (113 animals, five to eight months old, weighing 19.1 to 36.2 g) regardless of sex. Grouping of the animals was based on the weight measured on the day before initiation of the experiment and a stumbling index measured before initiation of the experiment. A quantity of voluntary motion was measured during thirty minutes immediately before administration (during 30-0 min. before administration), immediately after administration (during 0-30 min. after administration), one hour after administration (during 60-90 min. after administration), three hours after administration (during 180-210 min. after administration), and seven hours after administration (during 420-450 min. after administration) with a device for measuring voluntary motion. Stumbling of animals was counted with a video camera set upon the device for measuring voluntary motion during the same time period as that of measurement of voluntary motion. A stumbling index was calculated by the formula: [Count of stumbling (count/30 min.)]/[Voluntary motion (count/30 min.)]. The results are shown in FIGS. 1 to 3 wherein #: p<0.05, ##: p<0.01, being significant as compared to values before administration (paired t-test); *: p<0.05, being significant as compared to control during the same time period (Turkey test).

[6] = Stability of selenoprotein P and its fragments to heat, denaturing agent, pH, protease in blood; format: physicochemical; settings: compared to common enzymes
[7] = test system: Dami cells; assay: Toxicity of selenium-containing substances to cells in culture; settings: concentration where selenocystine / other selenium-containing substances show toxicity

CC[C@H](C)[C@H](NC(=O)[C@H](CC(C)C)NC(=O)[C@H](Cc1c[nH]cn1)NC(=O)[C@H](CCCNC(=N)N)NC(=O)[C@H](CO)NC(=O)[C@H](Cc1c[nH]cn1)NC(=O)[C@H](CO)NC(=O)[C@H](CO)NC(=O)[C@H](C[SeH])NC(=O)[C@H](CO)NC(=O)[C@@H](N)CCCNC(=N)N)C(=O)N[C@@H](Cc1ccccc1)C(=O)N[C@@H](CCC(=O)O)C(=O)N[C@@H](CCCCN)C(=O)O [Peptide 6, Arg Ser Xaa Ser Ser His Ser Arg His Leu Ile Phe Glu Lys] (H-RS[Sec]SSHSRHLIFEK-OH)
cytotoxicity-inhibitory activity (in words) ([1]; Dami cells, peptides of Preparation 2): most effectively at the lowest concentration

NC(=O)[C@@H]1CCCN1C(=O)[C@H](Cc1cnc[nH]1)NC(=O)[C@@H]1CCC(=O)N1 [TRH, thyrotropin-releasing hormone]
duration of the efficacy [2]: about 1 hours

N[C@@H](C[Se][Se]C[C@H](N)C(=O)O)C(=O)O [selenocystine]
toxicity (in words) [3]: exhibited toxicity | toxicity when added alone to cell culture [4]: fairly strong toxicity

Lys Arg Cys Ile Asn Gln Leu Leu Cys Lys Leu Pro Thr Asp Ser Glu Leu Ala Pro Arg Ser Xaa Cys Cys H is Cys Arg H is Leu Ile Phe Glu Lys (KRCINQLLCKLPTDSELAPRS[Sec]CCHCRHLIFEK; cysteine pairing not given here; listed as Human plasma) [SEQ ID NO: 3, peptide purified under reduced condition from selenoprotein P fragment]
cell death-inhibitory activity (in words) [1]: had the cell death-inhibiting activity

B1: selenoprotein P (protein)
chain: ESQDQSSLCKQPPAWSIRDQDPMLNSNGSVTVVALLQASUYLCILQASKLEDLRVKLKKEGYSNISYIVVNHQGISSRLKYTHLKNKVSEHIPVYQQEENQTDVWTLLNGSKDDFLIYDRCGRLVYHLGLPFSFLTFPYVEEAIKIAYCEKKCGNCSLTTLKDEDFCKRVSLATVDKTVETPSPHYHHEHHHNHGHQHLGSSELSENQQPGAPNAPTHPAPPGLHHHHKHKGQHRQGHPENRDMPASEDLQDLQKKLCRKRCINQLLCKLPTDSELAPRSUCCHCRHLIFEKTGSAITUQCKENLPSLCSUQGLRAEENITESCQURLPPAAUQISQQLIPTEASASURUKNQAKKUEUPSN
modifications: non-natural residues
cell death-inhibitory activity (in words) [1]: much lower than that of the fragment thereof | stumbling index compared with values before administration ([5]; high dose 0.5 mg/head/week i.p., 420-450 min Week 1, 60-90, 180-210, 420-450 min Week 2, 60-90 min Week 3): significant decrease | stumbling index compared with control group, significance ([5]; high dose 0.5 mg/head/week i.p., during 60-90 min. after administration on Week 1): significant decrease | stumbling index compared with control group ([5]; high dose 0.5 mg/head/week i.p., each time period on Week 1, Week 2 and Week 3): remained lower than the control group | stumbling index, low dose group ([5]; low dose 0.05 mg/head/week i.p.): no significant decrease | stability to heat, a denaturing agent, a broad range of pH or protease in blood [6]: rather stable | toxicity (in words) [7]: no strong toxicity

B2: SEQ ID NO: 2: selenoprotein P fragment, 260th to 362nd amino acids (103 C-terminal residues) (protein, listed as Human plasma)
chain: KRCINQLLCKLPTDSELAPRS[code U]CCHCRHLIFEKTGSAIT[code U]QCKENLPSLCS[code U]QGLRAEENITESCQ[code U]RLPPAA[code U]QISQQLIPTEASAS[code U]R[code U]KNQAKK[code U]E[code U]PSN
modifications: ends and bridges not checked
cell death-inhibitory activity (in words) [1]: having the cell death-inhibiting activity
